Results: patent publication US20040171019A1, “PIN1 peptidyl-prolyl isomerase polypeptides, their crystal structures, and use thereof for drug design” (Agouron Pharmaceuticals, Inc., priority 2002, published 2004)

Test system: Suc-AEPF-pNA peptide substrate
Test: Peptidyl-prolyl isomerase activity of PIN1 polypeptides without inhibitor
Format: biochemical
Conditions: 0.033 nM enzyme, 100 μM Suc-AEPF-pNA
Description: PIN1 is a phosphorylation dependent peptidyl-prolyl isomerase. Peptidyl-prolyl ismomerase activity for the peptides of the invention can be measured using a spectrophotometric assay based on the coupled chymotrypsin catalyzed, cis-trans conformation dependent cleavage of a para-nitroanaline-containing peptide substrate. This rotamase assay is described by Kofron et al. (Biochemistry 30, […] (1991)) and its application to PIN1 isomerase activity is described by Yaffe et al. (Science 278, 1957-1960 (1997)). Cleavage of the isomerized peptide releases para-nitroanaline, which can be monitored by an increase in absorbance at 390 nm. The PIN1 peptide substrate, succinyl-alanine-[…]-proline-phenylalanine-paranitroaniline (Suc-AEPF-pNA) (Bachem California, Inc., Torrence, Calif.) is kept in a predominantly cis conformation with an anhydrous TFE (trifluorethanol)/LiCl (lithium chloride) solvent mixture. […]
Peptidyl-prolyl isomerase reactions were carried out in 25 mM MOPS [3-(N-Morpholino)propanesufonic acid], pH 7.5, 0.5 mM TCEP [Tris(2-carboxyethyl)phosphine hydrochloride], 2% DMSO, 5 μl of a 25 mg/ml solution of Subtilisin Carlsberg Protease (Sigma), […], and 100 μM Suc-AEPF-pNA peptide substrate. […] The absorbance at 390 nm was monitored continuously until all substrate had been converted to the cleaved product. […]

B1: mutant PIN1 PPIase (K77Q/K82Q): mutant PIN1 PPIase polypeptide (SEQ ID NO:4) devoid of the WW domain, with K77Q and K82Q substitutions (protein)
chain: GSHMGKNGQGEPARVRCSHLLVKHSQSRRPSSWRQEQITRTQEEALELINGYIQKIKSGEEDFESLASQFSDCSSAKARGDLGAFSRGQMQKPFEDASFALRTGEMSGPVFTDSGIHIILRTE
  rate: 0.2
